*: point of attachment. AMC = Cc1cc(=O)oc2cc(N*)ccc12
The substances below were run against T1, Set9 (His-Set9, His-Set7/9) (Homo sapiens, UniProt Q8WTS6) (assay: Substrate specificity / methylation of peptidyl MCAs by Set9). Conditions: Example 6; His-Set9 0-1.5 μg/μL; right panel of FIG. 14.
T1 sequence (Q8WTS6 1-366): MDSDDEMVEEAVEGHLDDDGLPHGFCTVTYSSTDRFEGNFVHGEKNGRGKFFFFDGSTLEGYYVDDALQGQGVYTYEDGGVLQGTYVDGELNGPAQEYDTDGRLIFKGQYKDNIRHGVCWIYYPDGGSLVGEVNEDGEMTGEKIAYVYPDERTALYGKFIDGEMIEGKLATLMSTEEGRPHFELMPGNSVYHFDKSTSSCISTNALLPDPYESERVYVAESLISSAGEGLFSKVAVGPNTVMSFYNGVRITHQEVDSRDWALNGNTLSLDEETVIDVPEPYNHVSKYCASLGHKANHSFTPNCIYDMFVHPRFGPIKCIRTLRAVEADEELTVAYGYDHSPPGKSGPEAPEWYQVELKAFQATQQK
Type: biochemical
Method: When Set9 was adopted as a histone methyltransferase, the following method was used. 10 μL of 2×HMT buffer (100 mM Tris-HCl (pH 8.5), 20 mM MgCl2, 40 mM KCl, 20 mM 2-mercaptoethanol, 500 mM sucrose), 2 μL of a BSA solution (30 μg/mL), 3 μL of His-Set9 (0, 0.33 to 10 μg/μL), and 1 μL of distilled water were mixed and then incubated at room temperature for 1 hour. Then, 2 μL of SAM (10 mM) and 2 μL of a peptidyl MCA solution (0.6 mM) were added thereto, which was then incubated at 37° C. for 1 hour. Thereafter, 30 μL of a trypsin solution (20 mg/mL) was added thereto, followed by incubation at 37° C. for 15 minutes. Then, the fluorescence intensity of the solution was measured at an excitation wavelength (λex) of 390 nm and a fluorescence wavelength (λem) of 460 nm. The final concentration of His-Set9 during the measurement of fluorescence intensity was 0, 0.05, 0.15, 0.5, or 1.5 μg/μL. The results of the assay for measuring histone methyltransferase activity are shown in the right panel of FIG. 14.
When Set9 was adopted as a histone methyltransferase, the following method was used. 10 μL of 2×HMT buffer (100 mM Tris-HCl (pH 8.5), 20 mM MgCl2, 40 mM KCl, 20 mM 2-mercaptoethanol, 500 mM sucrose), 0.4 μL of a BSA solution (150 μg/mL), 5.9 μL of His-Set9 (0, 0.051, 0.17, 0.51, 1.7 μg/μL), and 1.7 μL of distilled water were mixed and then incubated at room temperature for 1 hour. Then, 1 μL of SAM (20 mM) and 1 μL of a peptidyl MCA solution (1.2 mM) were added thereto, which was then incubated at 37° C. for 1 hour. Thereafter, 30 μL of a trypsin solution (20 mg/mL) was added thereto, followed by incubation at 37° C. for 15 minutes. Then, the fluorescence intensity of the solution was measured at an excitation wavelength (λex) of 390 nm and a fluorescence wavelength (λem) of 460 nm. The final concentration of His-Set9 during the measurement of fluorescence intensity was 0, 0.015, 0.05, 0.15, or 0.5 μg/μL. The results of the assay for measuring histone methyltransferase activity are shown in the right panel of FIG. 16.
When Set7/9 was adopted as a histone methyltransferase, the following method was used. 10 μL of 2×HMT buffer (100 mM Tris-HCl (pH 8.5), 20 mM MgCl2, 40 mM KCl, 20 mM 2-mercaptoethanol, 500 mM sucrose), 0.4 μL of a BSA solution (150 μg/mL), 4 µL of His-Set7/9 (0, 0.025 to 0.75 μg/μL), and 3.6 μL of distilled water were mixed and then incubated at room temperature for 1 hour. Then, 1 μL of SAM (final concentration: 0.1 mM) and 1 μL of a peptidyl MCA solution (1.2 mM) were added thereto, which was then incubated at 37° C. for 1 hour. Thereafter, 30 μL of a trypsin solution (20 mg/mL) was added thereto, followed by incubation at 37° C. for 15 minutes. Then, the fluorescence intensity of the solution was measured at an excitation wavelength (λex) of 330 nm and a fluorescence wavelength (λem) of 380 nm or at an excitation wavelength (λex) of 390 nm and a fluorescence wavelength (λem) of 460 nm. The final concentration of His-Set7/9 during the measurement of fluorescence intensity was 0, 0.005, 0.015, 0.05, or 0.15 μg/μL.

Substance | methylation of peptidyl MCA by Set9
Ac-LKSK-MCA (Ac-LKSK-{AMC}; SMILES CC(=O)N[C@@H](CC(C)C)C(=O)N[C@@H](CCCCN)C(=O)N[C@@H](CO)C(=O)N[C@@H](CCCCN)C(=O)Nc1ccc2c(C)cc(=O)oc2c1; listed as Homo sapiens) [Ac-p53 (369-372)-MCA] | methylation often occurred
Ac-ARK-MCA (Ac-Ala-Arg-Lys-{AMC}; SMILES CC(=O)N[C@@H](C)C(=O)N[C@@H](CCCNC(=N)N)C(=O)N[C@@H](CCCCN)C(=O)Nc1ccc2c(C)cc(=O)oc2c1; listed as Homo sapiens) [Ac-histone H3 (7-9/25-27)-MCA, acetyl-ARK (human histone H3 7-9 or 25-27)-MCA substrate] | little methylation occurred
Ac-ARTKQTARK-MCA [Ac-histone H3 (1-9)-MCA] | little methylation occurred
Ac-QTARK-MCA [Ac-histone H3 (5-9)-MCA] | little methylation occurred
Ac-QLATKAARK-MCA (Ac-QLATKAARK-{AMC}; SMILES CC(=O)N[C@@H](CCC(N)=O)C(=O)N[C@@H](CC(C)C)C(=O)N[C@@H](C)C(=O)N[C@H](C(=O)N[C@@H](CCCCN)C(=O)N[C@@H](C)C(=O)N[C@@H](C)C(=O)N[C@@H](CCCNC(=N)N)C(=O)N[C@@H](CCCCN)C(=O)Nc1ccc2c(C)cc(=O)oc2c1)[C@@H](C)O; listed as Homo sapiens) [Ac-histone H3 (19-27)-MCA] | little methylation occurred
Ac-ARTK-MCA (Ac-ARTK-{AMC}; SMILES CC(=O)N[C@@H](C)C(=O)N[C@@H](CCCNC(=N)N)C(=O)N[C@H](C(=O)N[C@@H](CCCCN)C(=O)Nc1ccc2c(C)cc(=O)oc2c1)[C@@H](C)O; listed as Homo sapiens) [Ac-histone H3 (1-4)-MCA] | methylation often occurred
Ac-KAARK-MCA (Ac-KAARK-{AMC}; SMILES CC(=O)N[C@@H](CCCCN)C(=O)N[C@@H](C)C(=O)N[C@@H](C)C(=O)N[C@@H](CCCNC(=N)N)C(=O)N[C@@H](CCCCN)C(=O)Nc1ccc2c(C)cc(=O)oc2c1; listed as Homo sapiens) [Ac-histone H3 (23-27)-MCA] | little methylation occurred

Same assay, conditions: Example 13; AMC and peptidyl MCA fluorescence; FIGS. 25 and 26

Substance | methylation of peptidyl MCA by His-Set7/9
Ac-ARTKQTARK-MCA [Ac-histone H3 (1-9)-MCA] | does not methylate
Ac-KRSK-MCA (Ac-KRSK-{AMC}; SMILES CC(=O)N[C@@H](CCCCN)C(=O)N[C@@H](CCCNC(=N)N)C(=O)N[C@@H](CO)C(=O)N[C@@H](CCCCN)C(=O)Nc1ccc2c(C)cc(=O)oc2c1; listed as Homo sapiens) [Ac-ERα (299-302)-MCA] | methylates

From US9012166B2, “Method for assaying histone methylation enzyme activity” (Kyushu Institute of Technology, priority 2010, dated 2015)
